# Residue numbers refer to the chain shown, from its start. Names may count otherwise.
# B1: antibody A (antibody, mouse IgG1, kappa, V domains shown)
# VH: QIQLVQSGPELKKPGETVKISCKASGYTFTDYSMHWVKQAPGKGLKWMGWINTETGEPTYADDFKGRFAFSLETSASTAYLQINNLKNEDTATYFCARIPLYYYGSRYWYFDVWGAGTTVTVSS
# VL: DIQMTQSPASLSVSVGETVTITCRASENIYRNLAWYQQKQGKSPQLLVYAATNLADGVPSRFSGSGSGTQYSLKINSLQSEDFGSYYCQHFWGTPWTFGGGTKLEIKR
# notes: mouse IgG1 heavy chain, kappa light chain; purified from hybridoma supernatant; also called anti-EphA4 monoclonal antibody; antibody A-IgG
# B2: humanized antibody No. 76 (antibody, human IgG1, kappa)
# heavy: QVQLVQSGSELKKPGASVKVSCKASGYTFTDYSMHWVRQAPGQGLKWMGWINTETGEPTYAQGFTGRFVFSLDTSVSTAYLQISSLKAEDTAVYYCARIPLYYYGSRYWYFDVWGQGTTVTVSSASTKGPSVFPLAPSSKSTSGGTAALGCLVKDYFPEPVTVSWNSGALTSGVHTFPAVLQSSGLYSLSSVVTVPSSSLGTQTYICNVNHKPSNTKVDKRVEPKSCDKTHTCPPCPAPPAAAPSVFLFPPKPKDTLMISRTPEVTCVVVDVSHEDPEVQFNWYVDGVEVHNAKTKPREEQFNSTFRVVSVLTVVHQDWLNGKEYKCKVSNKGLPAPIEKTISKTKGQPREPQVYTLPPSREEMTKNQVSLTCLVKGFYPSDIAVEWESNGQPENNYKTTPPMLDSDGSFFLYSKLTVDKSRWQQGNVFSCSVMHEALHNHYTQKSLSLSPG
# light: DIQMTQSPSSLSASVGDRVTITCRASENIYRNLAWYQQKPGKAPKLLVYAATNLADGVPSRFSGSGSGTDYTLTISSLQPEDFATYYCQHFWGTPWTFGQGTKVEIKRTVAAPSVFIFPPSDEQLKSGTASVVCLLNNFYPREAKVQWKVDNALQSGNSQESVTEQDSKDSTYSLSSTLTLSKADYEKHKVYACEVTHQGLSSPVTKSFNRGEC
# notes: human Ig kappa; also called L1-4/HA2
# B3: humanized antibody No. 85 (antibody, human IgG1, kappa)
# heavy: B2 heavy with Q62D, G63D, T65K
# light: B2 light with V48L, P80S
# notes: human Ig kappa; also called L1-5/HK2
# B4: humanized antibody No. 78 (antibody, human IgG1, kappa)
# heavy: B2 heavy with Q62D, G63D, T65K
# light: B2 light
# notes: human Ig kappa; also called L1-4/HK2
# B5: humanized antibody No. 67 (antibody, human IgG1, kappa)
# heavy: B2 heavy with V2I
# light: B2 light
# notes: human Ig kappa; also called L1-4/HA4
# B6: humanized antibody No. 75 (antibody, human IgG1, kappa)
# heavy: B2 heavy with K46E
# light: B2 light
# notes: constant region: human IgG1 CH1 and hinge, human IgG2 CH2 and CH3 with V234A, G237A, no C-terminal Lys; human Ig kappa; also called L1-4/HA1
# B7: humanized antibody No. 82 (antibody, human IgG1, kappa)
# heavy: B2 heavy
# light: B2 light with V48L, P80S
# notes: human Ig kappa; also called L1-5/HA2
# B8: humanized antibody No. 84 (antibody, human IgG1, kappa)
# heavy: B2 heavy with K46E, Q62D, G63D, T65K
# light: B2 light with V48L, P80S
# notes: human Ig kappa; also called L1-5/HK1
# B9: humanized antibody No. 81 (antibody, human IgG1, kappa)
# heavy: B2 heavy with K46E
# light: B2 light with V48L, P80S
# notes: human Ig kappa; also called L1-5/HA1
# B10: humanized antibody No. 88 (antibody, human IgG1, kappa)
# heavy: B2 heavy
# light: B2 light with K45Q, V48L
# notes: human Ig kappa; also called L1-6/HA2
# B11: humanized antibody No. 83 (antibody, human IgG1, kappa)
# heavy: B2 heavy with V2I
# light: B2 light with V48L, P80S
# notes: human Ig kappa; also called L1-5/HA4
# B12: humanized antibody No. 69 (antibody, human IgG1, kappa)
# heavy: B2 heavy with V2I, Q62D, G63D, T65K
# light: B2 light
# notes: human Ig kappa; also called L1-4/HK4
# B13: humanized antibody No. 77 (antibody, human IgG1, kappa)
# heavy: B2 heavy with K46E, Q62D, G63D, T65K
# light: B2 light
# notes: human Ig kappa; also called L1-4/HK1
# B14: humanized antibody No. 86 (antibody, human IgG1, kappa)
# heavy: B2 heavy with V2I, Q62D, G63D, T65K
# light: B2 light with V48L, P80S
# notes: human Ig kappa; also called L1-5/HK4
# B15: humanized antibody No. 87 (antibody, human IgG1, kappa)
# heavy: B2 heavy with K46E
# light: B2 light with K45Q, V48L
# notes: human Ig kappa; also called L1-6/HA1
# Molecular target: T1, human EphA4 extracellular region-SEAP-His protein (human, UniProt P54764 20-547)
# T1 construct: also called hEphA4-SEAP-His
# Experiment: SPR, Ab captured
# Description: The binding affinity of each anti-EphA4 monoclonal humanized antibody obtained in Example 16 for human EphA4 was determined by surface plasmon resonance (SPR) using Biacore T200 (GE Healthcare). First, for the assay of antibody A, a rat anti-mouse IgG₁ antibody produced with a conventional method by immunizing rat with mouse IgG₁ antibody was immobilized on sensor chip CM5. The immobilization of the rat anti-mouse IgG1 antibody on sensor chip CM5 was performed by the amine coupling method using N-hydroxysuccinimide (NHS) and N-ethyl-N′-(3-dimethylaminopropyl)carbodiimide hydrochloride (EDC). Ethanolamine was used in blocking (the sensor chip and the reagents for immobilization were all manufactured by GE Healthcare). The antibody was diluted with a buffer solution for immobilization (10 mM sodium acetate, pH 4.5) and immobilized on the sensor chip according to the protocol attached to Biacore T200. For the assay of each humanized monoclonal antibody, a protein A chip (GE Healthcare, 29-1383-03) was used. Antibody A or the humanized monoclonal antibody was diluted with a running buffer solution HBS-EP (GE Healthcare), injected onto only flow cell 2 for 120 seconds, and captured (captured amount: approximately 30 to 60 RU). Subsequently, human EphA4 extracellular region-SEAP-His protein serially diluted in the range of 50, 16.7, 5.6, 1.9, and 0.6 nM using HBS-EP was sequentially added from the lower toward higher concentration sides without regeneration operation. Binding reaction curves were sequentially observed at the time of the addition (association phase, for 120 sec) and after the completion of the addition (dissociation phase, for 900 sec). After the completion of each observation, the sensor chip was regenerated by the addition of 3 M MgCl₂ (for 60 sec) or 10 mM Glycine-HCl pH 1.5 (for 30 sec). The obtained binding reaction curves were subjected to fitting analysis with 1:1 binding models using software BIA evaluation attached to the system to calculate the affinity (KD=kd/ka) for human EphA4 (Table 6).
# T1 sequence (P54764 20-547): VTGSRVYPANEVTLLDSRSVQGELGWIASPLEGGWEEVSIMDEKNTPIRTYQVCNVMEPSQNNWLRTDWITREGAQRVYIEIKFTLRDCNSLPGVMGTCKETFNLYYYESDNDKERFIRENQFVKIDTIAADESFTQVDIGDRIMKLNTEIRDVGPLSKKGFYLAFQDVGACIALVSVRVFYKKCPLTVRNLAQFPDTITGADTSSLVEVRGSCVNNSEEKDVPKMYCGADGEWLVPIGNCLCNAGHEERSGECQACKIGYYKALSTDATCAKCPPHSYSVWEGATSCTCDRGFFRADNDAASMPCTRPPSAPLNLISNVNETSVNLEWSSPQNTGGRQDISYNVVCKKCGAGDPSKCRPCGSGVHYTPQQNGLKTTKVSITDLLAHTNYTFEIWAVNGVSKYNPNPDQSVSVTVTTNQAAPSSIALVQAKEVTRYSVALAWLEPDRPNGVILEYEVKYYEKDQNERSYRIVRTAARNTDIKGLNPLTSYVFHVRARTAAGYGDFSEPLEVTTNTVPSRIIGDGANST
Binder,Kd,koff,kon
B1,0.6 nM,0.00025 s⁻¹,420000 M⁻¹ s⁻¹
B2,1 nM,0.00034 s⁻¹,330000 M⁻¹ s⁻¹
B3,1.6 nM,0.0005 s⁻¹,310000 M⁻¹ s⁻¹
B4,1.1 nM,0.00039 s⁻¹,340000 M⁻¹ s⁻¹
B5,1.1 nM,0.00035 s⁻¹,330000 M⁻¹ s⁻¹
B6,1.2 nM,0.00042 s⁻¹,380000 M⁻¹ s⁻¹
B7,1.6 nM,0.00046 s⁻¹,290000 M⁻¹ s⁻¹
B8,1.7 nM,0.00056 s⁻¹,350000 M⁻¹ s⁻¹
B9,1.6 nM,0.00054 s⁻¹,340000 M⁻¹ s⁻¹
B10,1.4 nM,0.00042 s⁻¹,300000 M⁻¹ s⁻¹
B11,1.9 nM,0.00054 s⁻¹,290000 M⁻¹ s⁻¹
B12,1.1 nM,0.00037 s⁻¹,340000 M⁻¹ s⁻¹
B13,1.4 nM,0.00058 s⁻¹,410000 M⁻¹ s⁻¹
B14,1.5 nM,0.00046 s⁻¹,310000 M⁻¹ s⁻¹
B15,1.5 nM,0.00051 s⁻¹,350000 M⁻¹ s⁻¹

# Molecular target: T2, human EphB1 extracellular region-SEAP-His protein (human, UniProt P54762 18-540)
# T2 construct: extracellular domain; also called hEphB1-SEAP-His
# T2 sequence (looked up): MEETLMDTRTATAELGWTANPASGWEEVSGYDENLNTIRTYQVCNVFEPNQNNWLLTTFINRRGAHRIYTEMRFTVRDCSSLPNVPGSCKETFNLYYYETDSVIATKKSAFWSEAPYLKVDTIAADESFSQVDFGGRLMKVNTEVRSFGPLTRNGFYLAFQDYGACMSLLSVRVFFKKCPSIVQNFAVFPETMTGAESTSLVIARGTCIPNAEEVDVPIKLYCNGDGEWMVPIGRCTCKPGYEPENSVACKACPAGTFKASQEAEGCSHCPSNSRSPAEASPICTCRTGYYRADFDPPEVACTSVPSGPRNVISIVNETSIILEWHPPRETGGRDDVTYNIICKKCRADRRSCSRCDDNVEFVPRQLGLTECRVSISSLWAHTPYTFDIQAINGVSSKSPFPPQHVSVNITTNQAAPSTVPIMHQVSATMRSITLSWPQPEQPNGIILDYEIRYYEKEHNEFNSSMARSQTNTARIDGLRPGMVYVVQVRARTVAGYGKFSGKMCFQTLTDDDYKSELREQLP
# Experiment: ELISA
# Description: Each well of a 96-well plate (Nunc) was coated with a rabbit anti-6-His antibody (Bethyl Laboratories). Each well was […] After washing with 0.05% Tween 20/PBS (Nacalai Tesque) three times, the SEAP-His protein of human EphA1, EphA2, EphA3, EphA4, EphA5, EphA6, EphA7, EphA8, EphA10, EphB1, EphB2, EphB3, EphB4, or EphB6 was added (final concentration: 1 nM) to each well and incubated at room temperature for 1 hour. After washing three times, the humanized antibody was added to each well and incubated at room temperature for 1 hour. After washing three times, a horseradish peroxidase-labeled donkey […] antibody (Jackson ImmunoResearch Laboratories) was added thereto and incubated at room temperature for 1 hour. After washing three times, TMB Microwell Peroxidase Substrate System (Kirkegaard & Perry Laboratories (KPL)) was added to each well. After confirmation of moderate color development, an equal amount of a reaction stopping solution (1N H₂SO₄, Wako Pure Chemical Industries) was added to each well. The absorbance at 450 nm was read using a microplate reader (Thermo Fisher Scientific).
row,Binder,A450 as % of hEphA4-SEAP-His
1,B2,4.9%
2,B3,5%
3,B4,5%
4,B5,4.6%
5,B6,4.4%
6,B7,5.4%
7,B8,5.2%
8,B9,4.9%
9,B10,6.1%
10,B11,5.6%
11,B12,5.6%
12,B13,4.6%
13,B14,5.7%
14,B15,5.3%

# Molecular target: T1, human EphA4 extracellular …
# Experiment: competition ELISA, competitor human Ephrin A5-Fc
# Description: Each anti-EphA4 monoclonal humanized antibody obtained in Example 16 was evaluated for its inhibitory activity against the binding between human EphA4 and its human ligand according to the following steps. Each well of a 96-well plate (Nunc) was coated with an anti-alkaline phosphatase antibody (Thermo Fisher Scientific). After incubation overnight at 4° C., each well was blocked with 1% BlockAce (DS Pharma Biomedical) at room temperature for 1 hour. After washing with 0.05% Tween 20/PBS (Thermo Fisher Scientific) three times, the human EphA4 extracellular region-SEAP-His protein obtained by the method of Example 2 was added (final concentration: 10 nM) to each well and incubated at room temperature for 1 hour. After washing three times, a ligand and each serially diluted humanized antibody of antibody A (0, 0.003, 0.01, 0.03, 0.1, 0.3, 1, 3, 10, 30, 100, 300, 1000, and 3000 nM) were added to each well. The ligand used was biotinylated human Ephrin A5-Fc chimera (R&D Systems, final concentration: 0.7 nM). After incubation at room temperature for 1 hour and subsequent washing three times, horseradish peroxidase-labeled streptavidin (GE Healthcare) was added thereto and incubated at room temperature for 1 hour. After washing three times, a TMBZ (3,3′,5,5′-tetramethylbenzidine, Sigma-Aldrich) solution was added to each well and incubated at room temperature for 2 minutes. An equal amount of a reaction stopping solution (1N H₂SO₄, Wako Pure Chemical Industries) was added to each well. The absorbance at 450 nm was read using a microplate reader (PerkinElmer).
row,Binder,IC50
1,B2,2.9 nM
2,B3,4 nM
3,B4,2.8 nM
4,B5,4.4 nM
5,B6,2.9 nM
6,B7,4.1 nM
7,B8,4.6 nM
8,B9,4 nM
9,B10,3.6 nM
10,B11,3.7 nM
11,B12,3.1 nM
12,B13,3.5 nM
13,B14,4 nM
14,B15,3 nM

# Source: patent US20190077860A1 (EISAI R AND D MANAGEMENT, published 2019)
